# Assay results published in publication PMC3538890 (Traffic (Copenhagen, Denmark), 2012).
# T1: CFP-GS27 (UniProt O14653 1-212)
# T1 sequence (looked up): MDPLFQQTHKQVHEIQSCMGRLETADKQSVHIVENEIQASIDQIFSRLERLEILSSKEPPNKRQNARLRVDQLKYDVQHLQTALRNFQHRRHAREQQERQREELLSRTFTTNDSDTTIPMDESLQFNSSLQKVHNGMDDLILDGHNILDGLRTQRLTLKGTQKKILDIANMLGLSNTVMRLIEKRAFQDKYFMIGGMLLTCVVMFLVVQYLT
# Target: T1, CFP-GS27
# Assay: co-IP
row,Binder,fold reduction of co-IP against full length COG6-myc [fold]
1,"COG6-myc with deletion of residues 76-112 (natural protein, human, UniProt Q9Y2V7 1-657, looked up) MAEGSGEVVAVSATGAANGLNNGAGGTSATTCNPLSRKLHKILETRLDNDKEMLEALKALSTFFVENSLRTRRNLNCCQDMTSRLQAAKEQTQDLIVKTTKLQSESQKLEIRAQVADAFLSKFQLTSDEMSLLRGTREGPITEDFFKALGRVKQIHNDVKVLLRTNQQTAGLEIMEQMALLQETAYERLYRWAQSECRTLTQESCDVSPVLTQAMEALQDRPVLYKYTLDEFGTARRSTVVRGFIDALTRGGPGGTPRPIEMHSHDPLRYVGDMLAWLHQATASEKEHLEALLKHVTTQGVEENIQEVVGHITEGVCRPLKVRIEQVIVAEPGAVLLYKISNLLKFYHHTISGIVGNSATALLTTIEEMHLLSKKIFFNSLSLHASKLMDKVELPPPDLGPSSALNQTLMLLREVLASHDSSVVPLDARQADFVQVLSCVLDPLLQMCTVSASNLGTADMATFMVNSLYMMKTTLALFEFTDRRLEMLQFQIEAHLDTLINEQASYVLTRVGLSYIYNTVQQHKPEQGSLANMPNLDSVTLKAAMVQFDRYLSAPDNLLIPQLNFLLSATVKEQIVKQSTELVCRAYGEVYAAVMNPINEYKDPENILHRSPQQVQTLLS",~7
2,"COG6-myc with deletion of residues 112-150 (natural protein, human, UniProt Q9Y2V7 1-657, looked up) MAEGSGEVVAVSATGAANGLNNGAGGTSATTCNPLSRKLHKILETRLDNDKEMLEALKALSTFFVENSLRTRRNLRGDIERKSLAINEEFVSIFKEVKEELESISEDVQAMQVADAFLSKFQLTSDEMSLLRGTREGPITEDFFKALGRVKQIHNDVKVLLRTNQQTAGLEIMEQMALLQETAYERLYRWAQSECRTLTQESCDVSPVLTQAMEALQDRPVLYKYTLDEFGTARRSTVVRGFIDALTRGGPGGTPRPIEMHSHDPLRYVGDMLAWLHQATASEKEHLEALLKHVTTQGVEENIQEVVGHITEGVCRPLKVRIEQVIVAEPGAVLLYKISNLLKFYHHTISGIVGNSATALLTTIEEMHLLSKKIFFNSLSLHASKLMDKVELPPPDLGPSSALNQTLMLLREVLASHDSSVVPLDARQADFVQVLSCVLDPLLQMCTVSASNLGTADMATFMVNSLYMMKTTLALFEFTDRRLEMLQFQIEAHLDTLINEQASYVLTRVGLSYIYNTVQQHKPEQGSLANMPNLDSVTLKAAMVQFDRYLSAPDNLLIPQLNFLLSATVKEQIVKQSTELVCRAYGEVYAAVMNPINEYKDPENILHRSPQQVQTLLS",~7
